Values joined by “and” are separate entries in the source; they are usually repeats but may differ in a detail not shown here. Equal entries are not always repeated.

Usually Kd stands for the constant that tells how readily two partners part at equilibrium. A low value points to tighter binding. By koff is commonly meant the first-order rate constant of dissociation. What is called kon is the rate constant with which the complex forms. A high value points to faster complex formation. The IC50 is the point on the concentration scale where inhibition reaches its midpoint. High values mean lower potency, low ones higher potency.

The target of experiment [1] is T1, LILRB2重组蛋白(购于ACRO，Cat# LI2-H5220) (UniProt Q8N423 22-461).
T1 construct: Bought reagent; Used as analyte at '60nm' in BLI
The experiment can be described thus: BLI (Octet QKe), antibody captured on AHC probe, LILRB2 as analyte, 1:1 fit. On the technique in general: BLI is a label-free optical method that tracks binding on a fibre tip over time.

The target of experiment [2] is T2, LILRB2-mFc(NCBI号:AAH36827，22-461氨基酸) (UniProt Q8N423 22-461).
T2 construct: range 22-461; also called 重组LILRB2; not shown: mouse Fc (mFc)
The experiment can be described thus: blocking ELISA: LILRB2-mFc binding to coated HLA-G.

B1: JTX-8064 (antibody, V domains shown)
VH: QITLKESGPTLVKPTQTLTLTCTFSGFSLNTYAMGVSWIRQPPGKALEWLASIWWNGNKYNNPSLKSRLTVTKDTSKNQVVLTMTNMDPVDTATYYCAHSRIIRFTDYVMDAWGQGTLVTVSS
VL: DIQMTQSPSSLSTSVGDRVTITCRASEDIYNDLAWYQQKPGKAPKLLIYNANSLHTGVASRFSGSGSGTDFTFTISSLQPEDVATYFCQQYYDYPLTFGQGTKLEIK
notes: expressed in HEK293, Protein A purified; also called 对照抗体
In experiment [1], B1 gave a Kd of 4.93 nM, a koff of 0.00211 s⁻¹ and a kon of 428000 M⁻¹ s⁻¹. For the same molecule, the IC50 in experiment [2] was 0.86 nM and 1 nM.

The values above are taken from CN114805568A (BEIJING KENUO XINCHENG TECH CO LTD, dated 2022).
